Assay results as given in article PMC6632115.

Molecular target: T1, colicin E3 (Escherichia coli) (UniProt P00646)
T1 sequence: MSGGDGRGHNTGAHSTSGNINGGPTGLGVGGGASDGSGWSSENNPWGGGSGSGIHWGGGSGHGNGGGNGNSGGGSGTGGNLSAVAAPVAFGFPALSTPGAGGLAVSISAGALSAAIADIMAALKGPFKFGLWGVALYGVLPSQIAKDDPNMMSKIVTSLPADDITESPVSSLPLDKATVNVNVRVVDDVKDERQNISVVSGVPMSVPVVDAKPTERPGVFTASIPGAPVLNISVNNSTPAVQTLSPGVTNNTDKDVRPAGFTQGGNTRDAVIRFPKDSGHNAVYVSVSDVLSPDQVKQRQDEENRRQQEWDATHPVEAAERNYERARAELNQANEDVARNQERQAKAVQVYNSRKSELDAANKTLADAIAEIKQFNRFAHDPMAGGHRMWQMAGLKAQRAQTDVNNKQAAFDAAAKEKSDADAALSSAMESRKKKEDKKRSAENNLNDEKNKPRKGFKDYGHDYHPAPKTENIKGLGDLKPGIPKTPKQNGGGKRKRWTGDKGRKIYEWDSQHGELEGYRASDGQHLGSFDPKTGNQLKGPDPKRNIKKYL

B1: E3 immunity protein, co-expressed with colicin E3 in CFPS (natural protein)
chain: MGLKLDLTWFDKSTEDFKGEEYSKDFGDDGSVMESLGVPFKDNVNNGCFDVIAEWVPLLQPYFNHQIDISDNEYFVSFDYRDGDW
  effective multiplicity m = -ln(S/S0) of cell killing of K361 indicator cells by 250 ng/mL colicin E3 co-expressed with the immunity protein: 13.5
